In US20250043302A1, “MUTATED HYDROXYPHENYLPYRUVATE DIOXYGENASE POLYPEPTIDE, AND CODING GENE AND USE THEREOF” (BEIJING DABEINONG BIOTECHNOLOGY CO., LTD., priority 2021, published 2025):
Residue numbers refer to the chain shown, from its start. Numbers in names are those of the source.

B1: HvHPPD-02: nucleotide sequence encoding wild-type Hordeum vulgare HPPD; vector DBN11762 (nucleic acid)
DNA: ATGCCGCCGACGCCCACCACCCCAGCAGCTACCGGAGCTGCGGCTGCAGTAACCCCTGAGCATGCTCGGCCCCACAGGATGGTGAGGTTTAATCCAAGATCAGATCGTTTTCATACACTCTCGTTCCACCATGTTGAGTTCTGGTGCGCCGACGCGGCTTCAGCGGCCGGGAGGTTCGCCTTCGCGCTGGGGGCCCCTCTTGCCGCGCGTAGTGATTTGTCTACTGGGAATTCAGCGCACGCGTCCCAGCTTCTCCGAAGCGGCAGTCTCGCCTTTCTCTTCACTGCACCATATGCAAATGGATGTGATGCAGCAACTGCTTCCCTGCCGAGCTTTTCTGCGGATGCCGCGAGGCGATTCAGTGCTGACCATGGGATCGCCGTCCGGTCAGTTGCTCTTAGAGTGGCTGATGCTGCTGAGGCATTCAGGGCTTCAAGGCGTCGTGGTGCACGCCCGGCGTTTGCCCCGGTTGATCTTGGGCGGGGGTTTGCTTTTGCAGAGGTGGAGCTGTACGGCGACGTGGTGCTCCGATTTGTTTCTCACCCGGACGGCACTGATGTGCCCTTCTTGCCAGGATTTGAAGGTGTGACCAACCCTGATGCCGTGGATTATGGACTCACAAGATTTGATCATGTGGTTGGCAATGTTCCTGAATTGGCACCTGCTGCCGCTTACATCGCAGGTTTTACTGGCTTCCATGAATTTGCTGAATTCACGGCGGAGGATGTTGGTACAACTGAGTCAGGGCTGAACAGTGTTGTTTTAGCCAACAACTCAGAAGGAGTTCTCCTTCCCTTGAATGAACCTGTTCATGGAACCAAGCGCCGCTCCCAAATTCAAACATTTCTTGAGCACCACGGCGGCCCTGGTGTTCAACATATTGCTGTCGCCTCTAGCGACGTCCTGCGTACATTACGCAAGATGAGGGCTCGGTCCGCAATGGGTGGTTTCGACTTCCTCCCTCCACCATTGCCAAAATATTATGAAGGCGTCAGAAGACTTGCAGGAGATGTCCTCTCTGAAGCTCAGATCAAGGAGTGCCAAGAACTTGGCGTCTTGGTTGATAGAGATGACCAAGGAGTACTTCTGCAGATATTTACAAAACCCGTTGGTGACAGGCCAACTCTTTTCCTGGAGATGATTCAGAGAATTGGCTGCATGGAGAAAGATGAAAGAGGCGAGGAGTACCAGAAGGGTGGTTGTGGAGGCTTTGGAAAAGGAAACTTCTCAGAGCTGTTCAAGTCCATAGAAGATTACGAGAAAAGTCTAGAAGCCAAGCAGTCTGCTGCAGTGCAAGGTTCCTGA
modifications: HvHPPD-02 Nucleotide Sequence
notes: vector DBN11762
B2: HvHPPDm-F372A-02: nucleotide sequence encoding Hordeum vulgare HPPD with F372A; vector DBN11763 (nucleic acid)
DNA: B1 DNA with T1096G, T1097C, T1098C
modifications: HvHPPDm-F372A-02 Nucleotide Sequence
notes: vector DBN11763
B3: HvHPPDm-F372A-F383W-02: nucleotide sequence encoding Hordeum vulgare HPPD with F372A+F383W; vector DBN11765 (nucleic acid)
DNA: B1 DNA with T1096G, T1097C, T1098C, T1130G, C1131G
modifications: HvHPPDm-F372A-F383W-02 Nucleotide Sequence
notes: vector DBN11765

tested on: Arabidopsis thaliana T1 plants; test: Mesotrione tolerance of transgenic Arabidopsis thaliana T1 plants (spray, bleached leaf area grade, damage score); type: in vivo; parameters: Scores: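 damage score 0-100 computed as Σ(N×S)/(T×M)×100 over grades 0-3 with higher meaning more damage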; details: mesotrione 52.5 g ai/ha; Arabidopsis thaliana T1 plants
Summary of the method: (§1)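 T1 transformants selected by glufosinate; 18-day-old plants, with empty-vector and wild-type controls, sprayed with topramezone (25–200 g ai/ha), isoxaflutole (35–280 g ai/ha) or mesotrione (52.5–420 g ai/ha), water as 0×. Bleached leaf area fraction scored at 7 DAT as grades 0–3.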

Row | Molecule | Resistance evaluation | Scores
1 | B1 | Non-resistant | 100
2 | B2 | Highly resistant | 15
3 | B3 | Highly resistant | 8

same assay, conditions: mesotrione 52.5 g ai/ha; Arabidopsis thaliana T1 plants; 16 plants

Row | Molecule | Grade 0 (classification and statistics of the grade of pesticide damage; number of plants) | Grade 1 (classification and statistics of the grade of pesticide damage; number of plants) | Grade 2 (classification and statistics of the grade of pesticide damage; number of plants) | Grade 3 (classification and statistics of the grade of pesticide damage; number of plants)
4 | B1 | 0 | 0 | 0 | 16
5 | B2 | 9 | 7 | 0 | 0
6 | B3 | 12 | 4 | 0 | 0

same assay, conditions: mesotrione 105 g ai/ha; Arabidopsis thaliana T1 plants

Row | Molecule | Resistance evaluation | Scores
7 | B1 | Non-resistant | 100
8 | B2 | Poorly resistant | 56
9 | B3 | Moderately | 29

same assay, conditions: mesotrione 105 g ai/ha; Arabidopsis thaliana T1 plants; 16 plants

Row | Molecule | Grade 0 (classification and statistics of the grade of pesticide damage; number of plants) | Grade 1 (classification and statistics of the grade of pesticide damage; number of plants) | Grade 2 (classification and statistics of the grade of pesticide damage; number of plants) | Grade 3 (classification and statistics of the grade of pesticide damage; number of plants)
10 | B1 | 0 | 0 | 0 | 16
11 | B2 | 0 | 9 | 3 | 4
12 | B3 | 2 | 14 | 0 | 0

tested on: Arabidopsis thaliana T1 plants; test: Topramezone tolerance of transgenic Arabidopsis thaliana T1 plants (spray, bleached leaf area grade, damage score); type: in vivo; details: number of plants; topramezone 25 g ai/ha (1×), 7 DAT; Table 4
Summary of the method: as §1

Row | Molecule | Classification and statistics of the grade of pesticide damage: Grade 0 | Classification and statistics of the grade of pesticide damage: Grade 1 | Classification and statistics of the grade of pesticide damage: Grade 2 | Classification and statistics of the grade of pesticide damage: Grade 3
13 | B1 | 0 | 0 | 0 | 16
14 | B2 | 15 | 1 | 0 | 0
15 | B3 | 16 | 0 | 0 | 0

same assay, conditions: number of plants; topramezone 100 g ai/ha (4×), 7 DAT; Table 4

Row | Molecule | Classification and statistics of the grade of pesticide damage: Grade 0 | Classification and statistics of the grade of pesticide damage: Grade 1 | Classification and statistics of the grade of pesticide damage: Grade 2 | Classification and statistics of the grade of pesticide damage: Grade 3
16 | B1 | 0 | 0 | 0 | 16
17 | B2 | 8 | 8 | 0 | 0
18 | B3 | 10 | 6 | 0 | 0

same assay, conditions: pesticide damage score 0-100; topramezone 25 g ai/ha (1×), 7 DAT; Table 4

Row | Molecule | Scores
19 | B1 | 100
20 | B2 | 2
21 | B3 | 0

same assay, conditions: pesticide damage score 0-100; topramezone 100 g ai/ha (4×), 7 DAT; Table 4

Row | Molecule | Scores
22 | B1 | 100
23 | B2 | 17
24 | B3 | 13

same assay, conditions: topramezone 25 g ai/ha (1×), 7 DAT; Table 4

Row | Molecule | Resistance evaluation
25 | B1 | non-resistant (non-resistant plants (scores 68-100))
26 | B2 | highly
27 | B3 | highly

same assay, conditions: topramezone 100 g ai/ha (4×), 7 DAT; Table 4

Row | Molecule | Resistance evaluation
28 | B1 | non-resistant (non-resistant plants (scores 68-100))
29 | B2 | moderately
30 | B3 | highly

tested on: Arabidopsis thaliana T1 plants; test: Isoxaflutole tolerance of transgenic Arabidopsis thaliana T1 plants (spray, bleached leaf area grade, damage score); type: in vivo; parameters: Scores (pesticide damage): scale not given here; details: isoxaflutole 35 g ai/ha (0.5x field concentration), spray, Arabidopsis thaliana T1 plants
Summary of the method: as §1

Row | Molecule | Resistance evaluation | Scores (pesticide damage)
31 | B1 | Non-resistant | 100
32 | B2 | Moderately | 33
33 | B3 | Moderately | 25

same assay, conditions: isoxaflutole 35 g ai/ha (0.5x field concentration), spray, Arabidopsis thaliana T1 plants, 16 plants

Row | Molecule | Classification and statistics of the grade of pesticide damage: Grade 0 (number of plants) | Classification and statistics of the grade of pesticide damage: Grade 1 (number of plants) | Classification and statistics of the grade of pesticide damage: Grade 2 (number of plants) | Classification and statistics of the grade of pesticide damage: Grade 3 (number of plants)
34 | B1 | 0 | 0 | 0 | 16
35 | B2 | 1 | 14 | 1 | 0
36 | B3 | 4 | 12 | 0 | 0

same assay, conditions: isoxaflutole 70 g ai/ha (1x field concentration), spray, Arabidopsis thaliana T1 plants

Row | Molecule | Resistance evaluation | Scores (pesticide damage)
37 | B1 | Non-resistant | 100
38 | B2 | Poorly | 44
39 | B3 | Moderately | 33

same assay, conditions: isoxaflutole 70 g ai/ha (1x field concentration), spray, Arabidopsis thaliana T1 plants, 16 plants

Row | Molecule | Classification and statistics of the grade of pesticide damage: Grade 0 (number of plants) | Classification and statistics of the grade of pesticide damage: Grade 1 (number of plants) | Classification and statistics of the grade of pesticide damage: Grade 2 (number of plants) | Classification and statistics of the grade of pesticide damage: Grade 3 (number of plants)
40 | B1 | 0 | 0 | 0 | 16
41 | B2 | 0 | 12 | 3 | 1
42 | B3 | 1 | 14 | 1 | 0
